Source: patent publication US7354588B1, “Functional derivatives of ICAM-1 with altered ability to bind LFA-1 or HRV” (Dana Farber Cancer Institute, priority 1987, dated 2008)

Tests used:
[1] = test system: ICAM-1 expression on human umbilical vein endothelial cells (HUVEC); assay: Radioimmune assay of ICAM-1 expression with ^125I RR1/1, HUVEC; assay type: cell-based; details: for ^125I Specifically bound (CPM), HUVEC / fold of control ICAM-1 expression, HUVEC: 16 hr; for ^125I Specifically bound (CPM), HUVEC: rIL-1 beta 100 ng/ml, rIL-1 alpha 50 ng/ml, rTNF alpha 50 ng/ml, LPS 10 μg/ml, rIFN gamma 10 ng/ml, polymyxin B 10 μg/ml, control 603 ± 11; for fold of control ICAM-1 expression, HUVEC: same concentrations as CPM
Description: (§1) In order to measure ICAM-1 expression, a radioimmune assay was developed. In this assay, purified RR1/1 was iodinated using iodogen to a specific activity of 10 μCi/μg. Endothelial cells were grown in 96 well plates and treated as described for each experiment. The plates were cooled at 4° C. by placing in a cold room for 0.5-1 hr, not immediately on ice. The monolayers were washed 3× with cold complete media and then incubated 30 m at 4° C. with ^125I RR1/1. The monolayers were then washed 3× with complete media. The bound 125, was released using 0.1 N NaOH and counted. The specific activity of the ^125I RR1/1 was adjusted using unlabeled RR1/1 to obtain a linear signal over the range of antigen densities encountered in this study. Non-specific binding was determined in the presence of a thousand fold excess of unlabeled RR1/1 and was subtracted from total binding to yield the specific binding.
(§2) Upregulation of ICAM-1 expression on HVEC and HSVEC-HUVEC or HSVEC were seeded into 96 well plates at 1:3 from a confluent monolayer and allowed to grow to confluence. Cells were then treated with the indicated materials or media for 16 hr and the RIA done as in methods. All points were done in quadruplicate.

[2] = test system: ICAM-1 expression on human saphenous vein endothelial cells (HSVEC); assay: Radioimmune assay of ICAM-1 expression with ^125I RR1/1, HSVEC; assay type: cell-based
Description: as §1, §2

HRV14 = assay: Binding of [^35S]-Met labeled HRV14 to COS cells expressing ICAM-1 mutants; assay type: cell-based, human rhinovirus 14; details: 35S met-labeled HRV14 binding to COS cells expressing ICAM-1 mutant; normalized for percent of cells expressing mutant and for wild type binding; mean
LFA-1 = target: T1, LFA-1 (Homo sapiens, UniProt P05107+P20701); assay: Adherence of COS cells expressing ICAM-1 or ICAM-1 mutants to plastic-bound purified LFA-1; assay type: cell-based; details: COS cells expressing ICAM-1 mutant adhering to LFA-1 coated plastic; normalized for percent of cells expressing mutant and for wild type binding; mean
T1 construct: endogenous in cells
T1 sequence (P20701 26-1170): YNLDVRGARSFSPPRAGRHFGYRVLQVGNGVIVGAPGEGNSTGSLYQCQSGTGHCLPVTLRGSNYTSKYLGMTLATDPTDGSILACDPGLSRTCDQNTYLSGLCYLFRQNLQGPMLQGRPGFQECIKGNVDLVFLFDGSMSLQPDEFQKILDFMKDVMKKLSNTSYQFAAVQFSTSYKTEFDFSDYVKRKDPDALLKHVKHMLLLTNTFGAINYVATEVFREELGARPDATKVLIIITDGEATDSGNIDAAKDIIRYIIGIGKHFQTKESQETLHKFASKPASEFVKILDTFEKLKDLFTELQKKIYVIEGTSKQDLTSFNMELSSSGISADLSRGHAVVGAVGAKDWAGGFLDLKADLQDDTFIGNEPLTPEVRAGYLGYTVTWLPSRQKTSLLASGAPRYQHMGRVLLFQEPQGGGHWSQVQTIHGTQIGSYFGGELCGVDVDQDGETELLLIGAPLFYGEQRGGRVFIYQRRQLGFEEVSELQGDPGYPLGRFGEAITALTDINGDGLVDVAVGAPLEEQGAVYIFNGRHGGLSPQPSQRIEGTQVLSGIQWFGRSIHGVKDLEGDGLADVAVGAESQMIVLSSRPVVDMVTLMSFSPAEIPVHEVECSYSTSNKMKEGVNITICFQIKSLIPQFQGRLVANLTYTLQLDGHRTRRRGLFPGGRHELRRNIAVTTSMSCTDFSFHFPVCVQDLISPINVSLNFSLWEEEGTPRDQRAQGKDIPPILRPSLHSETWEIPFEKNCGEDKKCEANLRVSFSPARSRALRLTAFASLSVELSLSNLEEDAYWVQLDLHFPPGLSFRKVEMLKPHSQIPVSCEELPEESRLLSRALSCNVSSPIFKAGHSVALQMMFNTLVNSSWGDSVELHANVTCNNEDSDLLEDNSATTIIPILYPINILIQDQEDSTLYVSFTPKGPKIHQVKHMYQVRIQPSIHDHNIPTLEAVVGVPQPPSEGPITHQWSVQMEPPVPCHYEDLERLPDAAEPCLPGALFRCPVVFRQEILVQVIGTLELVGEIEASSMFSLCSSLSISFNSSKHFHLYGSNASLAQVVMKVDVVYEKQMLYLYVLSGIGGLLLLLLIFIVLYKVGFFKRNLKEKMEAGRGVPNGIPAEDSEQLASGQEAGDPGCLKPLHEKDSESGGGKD
T1 sequence (P05107 23-769): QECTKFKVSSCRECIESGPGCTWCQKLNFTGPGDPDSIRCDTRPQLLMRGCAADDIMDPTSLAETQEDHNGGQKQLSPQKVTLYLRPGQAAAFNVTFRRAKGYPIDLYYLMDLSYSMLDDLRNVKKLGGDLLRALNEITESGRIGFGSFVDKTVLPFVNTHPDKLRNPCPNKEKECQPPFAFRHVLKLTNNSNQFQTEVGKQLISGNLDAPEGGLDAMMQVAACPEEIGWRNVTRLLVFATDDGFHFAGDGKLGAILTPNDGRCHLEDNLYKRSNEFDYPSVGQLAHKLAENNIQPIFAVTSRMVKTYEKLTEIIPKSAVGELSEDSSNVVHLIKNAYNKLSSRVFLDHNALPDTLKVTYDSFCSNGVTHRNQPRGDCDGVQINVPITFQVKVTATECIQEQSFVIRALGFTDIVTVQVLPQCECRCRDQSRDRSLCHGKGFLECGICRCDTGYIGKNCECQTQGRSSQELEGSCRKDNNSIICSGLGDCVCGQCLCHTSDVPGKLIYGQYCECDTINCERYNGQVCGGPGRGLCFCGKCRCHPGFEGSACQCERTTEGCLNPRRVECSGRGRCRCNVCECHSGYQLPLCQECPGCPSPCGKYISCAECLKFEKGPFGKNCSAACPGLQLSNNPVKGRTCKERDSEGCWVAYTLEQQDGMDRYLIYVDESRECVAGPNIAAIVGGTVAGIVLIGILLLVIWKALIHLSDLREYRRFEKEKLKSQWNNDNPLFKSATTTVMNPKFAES

CL203 mAb = assay: Indirect immunofluorescence flow cytofluorometry: mAb CL203 binding to COS cells expressing ICAM-1 mutants (SLFI, % WT); assay type: cell-based; details: SLFI of CL203 for mutant normalized to wild type CL203 SLFI; level of expression
Description: (§3) For HRV binding studies, COS cells were reseeded in a 24 well plate. One day later, the confluent monolayer was washed twice with 1 ml of RPMI 1640/10 mM MgCl2/25 mM Hepes pH 7.3 (rhinovirus-14 buffer). Transfected COS cells were labeled with 51Cr for binding to LFA-1 coated plastic as previously described (Staunton, D. E., et al., Nature 339:61-64 (1989). Immunoprecipitation and indirect immunofluorescence was performed using ICAM-1 MAb RR1/1 (Rothlein, R., et al., J. Immunol. 137:1270-1274 (1986)), R6.5 (Rothlein, R., et al., J. Immunol. 141:1665-1669 (1988)), LB-1 (Clark, E. A., et al., Hum. Immunol. 16:100-113 (1986)) and CL203 (Maio, M., J. Immunol. 143:181-188 (1989), all of which references are incorporated herein by reference).
(§4) Binding of RR1, R6.5, and LB-2 mAb was normalized to binding of CL203 mAb using Specific Linear Fluorescence Intensity (SLFI): % CL203=(mAbSLFI)×100)/CL203mABSLFI
(§5) In Table 25, the notation for the mutations uses the one-letter code for the wild-type sequence followed by a slash and the one-letter code for the corresponding mutant sequence. The position of the first amino acid within the sequence is indicated. Wild type residues precede the slash followed by the residues they were substituted for in the mutant. COS cells expressing ICAM-1 mutants were tested for adherence to LFA-1 coated plastic and for binding 35S met-labeled HRV14. LFA-1 and HRV14 binding is normalized for percent of cells expressing mutant ICAM-1 and for binding of wild type expressing cells. Binding is presented as mean and standard error (SE) for multiple experiments (n). Effects of two-fold or greater were reproducible in LFA-1, HRV and mAb binding assays and thus considered significant (bold and underlined). The specific linear fluorescence intensity (SLFI) of CL203 for each mutant is normalized to that of wild type CL203 SLFI (% WT) as discussed above. The SLFI of RR1/1, R6.5 and LB-2 SLFI is normalized to the CL203 SLFI of the mutant (% CL203) as described above.

LB-2 mAb = assay: Indirect immunofluorescence flow cytofluorometry: mAb LB-2 binding to COS cells expressing ICAM-1 mutants (SLFI, % CL203); assay type: cell-based; details: SLFI normalized to CL203 SLFI of the mutant
Description: as §3, §4, §5

R6.5 mAb = assay: Indirect immunofluorescence flow cytofluorometry: mAb R6.5 binding to COS cells expressing ICAM-1 mutants (SLFI, % CL203); assay type: cell-based; details: SLFI normalized to CL203 SLFI of the mutant
Description: as §3, §4, §5

RR1/1 mAb = assay: Indirect immunofluorescence flow cytofluorometry: mAb RR1/1 binding to COS cells expressing ICAM-1 mutants (SLFI, % CL203); assay type: cell-based; details: SLFI normalized to CL203 SLFI of the mutant
Description: as §3, §4, §5

[3] = IL-1 beta 100 ng/ml, rTNF 50 ng/ml, Interferon-gamma 10,000 U/ml

**Q.** How did the “^125I Specifically bound (CPM), HUVEC” value [1] turn out when rIL-1 beta: recombinant IL-1 beta was run?
**A.** 5680 ± 633 CPM

**Q.** And the “fold of control ICAM-1 expression, HUVEC” value [1]?
**A.** 9x

**Q.** What about the “increase of ICAM-1 expression on HUVEC” value [1, 3] of the same molecule?
**A.** 9 fold

**Q.** What about the “half-maximal increase of ICAM-1 expression” value ([1]; endothelial cells (HUVEC and HSVEC)) of the same molecule?
**A.** 15 ng/mL

**Q.** What about the “^125I Specifically bound (CPM), HSVEC” value ([2]; 16 hr, rIL-1 beta 100 ng/ml, rTNF alpha 50 ng/ml, LPS 10 μg/ml, rIFN gamma 10 ng/ml, control 1132 ± 31) of the same molecule?
**A.** 8320 ± 766 CPM

**Q.** And the “fold of control ICAM-1 expression, HSVEC” value ([2]; 16 hr, same concentrations as CPM)?
**A.** 7.3x

**Q.** What about the “increase of ICAM-1 expression on HSVEC” value [2, 3] of the same molecule?
**A.** 7.3 fold

B1: rIL-1 alpha: recombinant IL-1 alpha (protein, UniProt P01583 113-271, looked up)
Interleukin-1 alpha: SAPFSFLSNVKYNFMRIIKYEFILNDALNQSIIRANDQYLTAAALHNLDEAVKFDMGAYKSSKDDAKITVILRISKTQLYVTAQDEDQPVLLKEMPEIPKTITGSETNLLFFWETHGTKNYFTSVAHPNLFIATKQDYWVCLAGGPPSITDFQILENQA
**Q.** What does the source list for B1?
**A.** ^125I Specifically bound (CPM), HUVEC [1]: 9910 ± 538 CPM; fold of control ICAM-1 expression, HUVEC [1]: 16x

B2: N240DS/KNA (protein, UniProt P05362 28-532, looked up, variant N240K D241N S242A)
Intercellular adhesion …: QTSVSPSKVILPRGGSVLVTCSTSCDQPKLLGIETPLPKKELLLPGNNRKVYELSNVQEDSQPMCYSNCPDGQSTAKTFLTVYWTPERVELAPLPSWQPVGKNLTLRCQVEGGAPRANLTVVLLRGEKELKREPAVGEPAEVTTTVLVRRDHHGANFSCRTELDLRPQGLELFENTSAPYQLQTFVLPATPPQLVSPRVLEVDTQGTVVCSLDGLFPVSEAQVHLALGDQRLNPTVTYGKNAFSAKASVSVTAEDEGTQRLTCAVILGNQSQETLQTVTIYSFPAPNVILTKPEVSEGTEVTVKCEAHPRAKVTLNGVPAQPLGPRAQLLLKATPEDNGRSFSCSATLEVAGQLIHKNQTRELRVLYGPRLDERDCPGNWTWPENSQQTPMCQAWGNPLPELKCLKDGTFPLPIGESVTVTRDLEGTYLCRARSTQGEVTRKVTVNVLSPRYEIVIITVVAAAVIMGTAGLSTYLYNRQRKIKKYRLQQAQKGTPMKPNTQATPP
**Q.** For B2, which “HRV Binding %” value (HRV14) is on record?
**A.** 82%

**Q.** What about the “LFA-1 Binding %” value (LFA-1) of the same molecule?
**A.** 147%

**Q.** What about the “Cl203 % WT (SLFI)” value (CL203 mAb) of the same molecule?
**A.** 142 % WT

**Q.** And the “SLFI (% CL203) LB-2” value (LB-2 mAb)?
**A.** 132 % CL203

**Q.** What about the “SLFI (% CL203) R6.5” value (R6.5 mAb) of the same molecule?
**A.** 125 % CL203

**Q.** And the “SLFI (% CL203) RR/1” value (RR1/1 mAb)?
**A.** 113 % CL203

B3: E254DE/KEK (protein, UniProt P05362 28-532, looked up, variant E254K D255E E256K)
Intercellular adhesion …: QTSVSPSKVILPRGGSVLVTCSTSCDQPKLLGIETPLPKKELLLPGNNRKVYELSNVQEDSQPMCYSNCPDGQSTAKTFLTVYWTPERVELAPLPSWQPVGKNLTLRCQVEGGAPRANLTVVLLRGEKELKREPAVGEPAEVTTTVLVRRDHHGANFSCRTELDLRPQGLELFENTSAPYQLQTFVLPATPPQLVSPRVLEVDTQGTVVCSLDGLFPVSEAQVHLALGDQRLNPTVTYGNDSFSAKASVSVTAKEKGTQRLTCAVILGNQSQETLQTVTIYSFPAPNVILTKPEVSEGTEVTVKCEAHPRAKVTLNGVPAQPLGPRAQLLLKATPEDNGRSFSCSATLEVAGQLIHKNQTRELRVLYGPRLDERDCPGNWTWPENSQQTPMCQAWGNPLPELKCLKDGTFPLPIGESVTVTRDLEGTYLCRARSTQGEVTRKVTVNVLSPRYEIVIITVVAAAVIMGTAGLSTYLYNRQRKIKKYRLQQAQKGTPMKPNTQATPP
**Q.** What does the source list for B3?
**A.** HRV Binding % (HRV14): 99%; LFA-1 Binding % (LFA-1): 122%; Cl203 % WT (SLFI) (CL203 mAb): 180 % WT; SLFI (% CL203) LB-2 (LB-2 mAb): 81 % CL203; SLFI (% CL203) R6.5 (R6.5 mAb): 129 % CL203; SLFI (% CL203) RR/1 (RR1/1 mAb): 178 % CL203
